Patent publication US10494417B2, “Peptide inhibitors of BCR-ABL oligomerization” (University of Utah Research Foundation, priority 2014, dated 2019)
Values joined by “and” are separate entries in the source; they are usually repeats but may differ in a detail not shown here. Equal values may be shown once. “Also recorded” adds a separate entry of the source.

Experiments:
parental Ba/F3 cells = test: Colony forming assay of transfected parental Ba/F3 cells; assay type: cell-based, mouse; conditions: CCmut3 vs EV
Description: Both EGFP and EGFP-CC^mut3 were transfected into separate groups of cells on day 0. One day following transfection, 1.0×10^6 cells per treatment group were collected and re-suspended in 1.0 mL of PBS. Through serial dilutions, 1.0×10^3 cells in IMDM (Isocove's modified Dulbecco's media) with 2% FBS were seeded into methylcellulose medium in the absence of cytokines (MethoCult H4230 for K562 cells and MethoCult M3234 for p210 and p210-T315I cells) or in the presence of cytokines (MethoCult GF M3434 for parental Ba/F3 cells). Ponatinib was then added in the correct molar amounts (0, 100 pM, 1 nM, or 10 nM) to the methylcellulose medium. Colonies formed were counted after 7 days of incubation. All reagents were purchased from Stem Cell Technologies, Vancouver, BC, Canada. Assay was run three separate times (n=3) in duplicate.
Following selection of transfected cells by cell sorting, viable cells were enumerated and seeded into methylcellulose as described previously (Dixon, A. S., et al. (2011) J. Biol. Chem. 286, 27751-27760). Briefly, mCherry-positive Ba/F3 cells were re-suspended in IMDM with 2% FBS (Stem Cell Technologies) at a concentration of 10,000 cells/mL. […] Colonies were counted 7 days later in an area of […] per dish. […]

[1] = test system: Ba/F3 cells expressing native BCR-ABL1 (Ba/F3-p210); test: Annexin V/7-AAD apoptosis assay in transfected Ba/F3-p210 cells; assay type: cell-based, mouse
Description: Assays were run in triplicate (n=3).
(§1) For analysis of apoptosis and cell death, cells were pelleted and resuspended in Annexin V-binding buffer (BD Biosciences), stained with anti-Annexin V-APC (BD Biosciences or Life Technologies) and 7-AAD (BD Biosciences or Life Technologies) and analyzed on a BD FACSCanto flow cytometer. In addition to the APC and 7-AAD channels, GFP- and mCherry-positive cells were also recorded.
as §1, with “apoptosis and necrotic cell death,” for “apoptosis and cell death,”, “anti-Annexin V-APC and 7-AAD” for “anti-Annexin V-APC (BD Biosciences or Life Technologies) and 7-AAD”

[2] = test system: Ba/F3 cells expressing BCR-ABL1E255V; test: Annexin V/7-AAD apoptosis assay in Ba/F3 BCR-ABL1 E255V cells; assay type: cell-based, mouse; conditions: 72 h, CCmut3 vs EV
Description: as §1
as §1, with “apoptosis and necrotic cell death,” for “apoptosis and cell death,”, “anti-Annexin V-APC and 7-AAD” for “anti-Annexin V-APC (BD Biosciences or Life Technologies) and 7-AAD”

Ba/F3-p210-T315I cells = test: Trypan blue proliferation assay of transfected Ba/F3-p210-T315I cells; assay type: cell-based, mouse; conditions: CC^mut3 alone, trypan blue exclusion, 72 and 96 h
Description: Cell counts were performed using a standard light microscope.

[3] = test system: CD34+ cells from newly diagnosed CML patients; test: Colony forming assay of CD34+ cells from newly diagnosed CML patients; assay type: cell-based, human; conditions: for colony formation, in words: day 14 CFU-GM, lentiviral CCmut3 or 2.5 μM imatinib vs EV
Description: Primary cells were seeded in Methocult H4230 (Stem Cell Technologies) as described previously (Fleischman, A. G., et al. (2011). Blood 118, 6392-6398). Briefly, lentivirus-infected (GFP^+) cells were isolated by FACS and resuspended in RPMI1640. Cells were plated in Methocult H4230 at 1,000 cells/mL supplemented with 1× StemSpan CC100 cytokine mix (StemCell Technologies) with or without TKI as indicated in each experiment. Plates were incubated at 37° C. in a 5% CO2 humidified incubator for 14 days. Colony forming units of granulocyte-macrophage (CFU-GM) were counted on day 14 using an inverted microscope.
Following selection of transfected cells by cell sorting, methylcellulose colony assays were performed by plating in 0.9% methylcellulose (Stem Cell Technologies; M3234 for Ba/F3 BCR-ABL1 native and mutant lines; M3434 for Ba/F3 parental cells; H4230 for CML patient samples). mCherry-positive Ba/F3 cells (1.1×10^3 cells/plate) or GFP-positive primary CML CD34+ cells (1×10^3 cells/plate) were seeded per dish in duplicate. In the case of CML patient samples, cells were plated in the presence of 1× StemSpan CC100 cytokine cocktail (StemCell Technologies). All cells were plated with or without the indicated TKI in three or more independent experiments. Plates were incubated at 37° C. in a 5% CO2 humidified incubator. Colonies were counted 7-14 days later in an area of 50 μm2 per dish using an inverted microscope.

[4] = test system: CML CD34+ cells expressing BCR-ABL1T315I; test: Colony forming assay of primary CML CD34+ cells expressing BCR-ABL1T315I (samples R1, R2); assay type: cell-based, human
Description: Mononuclear cells (MNCs) were separated from the peripheral blood of patients with newly diagnosed or therapy-resistant CML with a documented T315I mutation, using Ficoll (Nycomed, Oslo, Norway). Isolation of the CD34^+ fraction was done on an autoMACS Pro (Miltenyi Biotech). […] Cells were infected with lentivirus at a multiplicity of infection (MOI) of 5 for each construct at 24 and 48 hours following harvest (fresh cells) or thaw (frozen cells). Cells were sorted on a BD FACSAria cytometer after 72 h, and GFP-positive cells were returned to culture medium for future experiments. All patients gave their informed consent in accordance with the Declaration of Helsinki, and all studies with human specimens were approved by The University of Utah Institutional Review Board (IRB).
Briefly, lentivirus-infected (GFP^+) cells were isolated by FACS and resuspended in RPMI1640. […] Plates were incubated at 37° C. in a 5% CO2 humidified incubator for 14 days. Colony forming units of granulocyte-macrophage (CFU-GM) were counted on day 14 using an inverted microscope.
All cells were plated with or without the indicated TKI in three or more independent experiments. Plates were incubated at 37° C. in a 5% CO2 humidified incubator. Colonies were counted 7-14 days later in an area of 50 μm2 per dish using an inverted microscope.

[5] = sample R1 (accelerated phase), lentiviral CCmut3 or 10 nM ponatinib vs EV

B1: CCmut3: modified Bcr-Abl coiled-coil domain (residues 1-72) with mutations C38A, K39E, S41R, L45D, E48R, Q60E (protein)
chain: MVDPVGFAEAWKAQFPDSEPPRMELRSVGDIEQELERAEARIRRDEQRVNQERFRMIYLETLLAKEKKSYDR
In the case of B1, the “colony formation, in words” value (parental Ba/F3 cells) is reported as “not affected; also recorded: no effect on parental Ba/F3 controls”, the “colony formation, in words” value (parental Ba/F3 cells; listed as CC^mut3) is reported as “not affected; also recorded: no difference between treatment groups” and the “apoptosis, in words” value ([1]; 72 h, CCmut3 vs EV) is reported as “increases apoptosis”. The “increase of apoptotic cells” value ([1]; 72 h, CCmut3 vs EV) was “approximately 3 fold”, the “increase in apoptotic population” value ([1]; CC^mut3 versus EV control (FIG. 14B)) was “more than 30%” and the “apoptosis, in words” value [2] was “increase of apoptosis”. The increase in apoptosis [2] was 6-8 fold and > 5 fold, the “apoptosis, in words” value ([2]; listed as CC^mut3) was “significant shift toward the apoptotic fraction” and the increase in apoptosis ([2]; listed as CC^mut3) was 6-8 fold. The cell proliferation (Ba/F3-p210-T315I cells) was “inhibit Ba/F3-p210-T315I cell proliferation”, the “colony formation, in words” value [3] was “equally effective in reducing colony number” and the “colony formation, in words” value ([3]; listed as CC^mut3) was “reduced to similar degree”. The “inhibition of colony formation” value ([3]; four newly diagnosed patient samples, day 14, normalized to EV) was ~60%, the “colony formation, in words” value [4, 5] was “even greater sensitivity to transduction with CCmut3” and the “reduction of colony formation” value [4, 5] was 76%. The “colony formation, in words” value ([4]; sample R1 (accelerated phase), lentiviral CCmut3 or 10 nM ponatinib vs EV, listed as CC^mut3) was “reduced colony formation to a similar degree”, the “colony formation, in words” value ([4]; sample R2 (blast crisis, after ponatinib failure), lentiviral CCmut3 or ponatinib vs EV) was “only minimal activity” and the “colony formation, in words” value ([4]; sample R2 (blast crisis, after ponatinib failure), lentiviral CCmut3 or ponatinib vs EV, listed as CC^mut3) was “insensitive”. The “reduction of colony formation” value ([4]; sample R2 (blast crisis, after ponatinib failure), lentiviral CCmut3 vs EV) was ~25%.
